Laboratory results published in PMC3268689 (Molecular Cell, 2009).

B1: PAN nucleotidase domain (residues 155-430) (domain or fragment, Methanocaldococcus jannaschii, UniProt Q58576 155-430, looked up)
chain: RAKAMEVDERPNVRYEDIGGLEKQMQEIREVVELPLKHPELFEKVGIEPPKGILLYGPPGTGKTLLAKAVATETNATFIRVVGSELVKKFIGEGASLVKDIFKLAKEKAPSIIFIDEIDAIAAKRTDALTGGDREVQRTLMQLLAEMDGFDARGDVKIIGATNRPDILDPAILRPGRFDRIIEVPAPDEKGRLEILKIHTRKMNLAEDVNLEEIAKMTEGCVGAELKAICTEAGMNAIRELRDYVTMDDFRKAVEKIMEKKKVKVKEPAHLDVLYR
B2: PAN subcomplex I fragment (residues 74-150), coiled-coil OB-fold domain (domain or fragment, Methanocaldococcus jannaschii, UniProt Q58576 74-150, looked up)
chain: MKENEILRRELDRMRVPPLIVGTVVDKVGERKVVVKSSTGPSFLVNVSHFVNPDDLAPGKRVCLNQQTLTVVDVLPE
modifications: selenomethionine (in the crystals used for MAD phasing and refinement)

Molecular target: the molecule itself
Experiment: SEC

Protein | stoichiometry N
B1 | 6
B2 | 6
